Experiment [1] concerns the target T1, α-casein (UniProt P02662 16-214, between 8 and 13 phosphate groups, at serine side chains).
T1 construct: Commercial α-casein is a mixture of subtypes; also called a-casein
T1 sequence (looked up): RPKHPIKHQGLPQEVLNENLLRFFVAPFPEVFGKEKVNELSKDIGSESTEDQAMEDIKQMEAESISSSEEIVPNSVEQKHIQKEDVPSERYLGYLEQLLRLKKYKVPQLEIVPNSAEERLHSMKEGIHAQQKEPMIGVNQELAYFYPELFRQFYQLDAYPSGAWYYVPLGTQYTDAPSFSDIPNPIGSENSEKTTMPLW
Nature of the experiment: fluorescence titration, 100 nM fluorescein labelled binder, α-casein 1 nM to 10 µM, 1:1 model. The procedure:
(§1) For a more accurate determination of the dissociation constant, titration with protein at a binder concentration of 100 nM in 10 mM HEPES buffer and 150 mM NaCl at pH 7.2 was carried out (FIG. 12). At this concentration a more strongly emitting probe was required and fluorescein was attached to the side chain of Cys-24 by reacting the maleimide group with the free thiol of the polypeptide after removal of the acetamidomethyl (Acm) protection group. The binder concentration was kept constant at 100 nM and a series of samples were prepared where only the concentration of α-casein was varied.
(§2) A series of solutions were prepared. […] All solutions were prepared in HEPES buffer (pH=7.2, 10 mM HEPES, 150 mM NaCl).

For experiment [2], the target named is T1, α-casein. Briefly: fluorescence titration, binder fixed at 100 nM, plotted against the free concentration of α-casein [lower panel, [a-casein]free]. The protocol:
as §1

The target in experiment [3] is T1, α-casein. Briefly: fluorescence titration, binder fixed at 100 nM, concentration of total α-casein varied [upper panel, [a-casein]tot]. The protocol: as §1, §2
For experiment [4], the target named is T1, α-casein. Nature of the experiment: three-step fluorescence titration, 500 nM binder; rough estimate. The protocol: In a preliminary and simple assay executable in microtitre plate format, each of the eight binder candidates at a concentration of 500 nM in 10 mM HEPES buffer and 150 mM NaCl at pH 7.2, equipped with the fluorophor 7-methoxycoumarin-3-carboxylic acid, were titrated with α-casein in three steps (FIG. 8). Concentrations of peptides were determined from the absorbance of the coumarine probe and stock solutions at concentrations of 5 μM were prepared from which aliqiuots were transferred to the microtitre plate. […] Saturation within experimental error at those concentrations is compatible with low nM affinity and tight binding.
In contrast, the differences in relative responses to increased concentrations of α-casein are related to differences in affinity. […] Nevertheless, it is a quick and informative experiment. From the fluorescence titrations the 4-series of binder candidates was estimated to have dissociation constants of around 5 nM or lower. […] It is concluded that the 3-series binders have dissociation constants in the high nM to the μM range. The nearly identical affinities within the 3-series and within the 4-series is probably fortuitous.

Data on 2 molecules can be found in patent publication US20130261013A1 (MODPRO, published 2013).

Ends that are not written are not given here. * marks the point of attachment. PP1 = 3,5-bis[[bis(2-pyridylmethyl)amino]methyl]benzoic acid, O=C(c1cc(CN(Cc2ccccn2)Cc2ccccn2)cc(CN(Cc2ccccn2)Cc2ccccn2)c1)*; X2 = 7‑methoxycoumarin‑3‑carboxylic acid, COc1ccc2cc(C(=O)*)c(=O)oc2c1

B1: 4-C15L8-PP1* (fluorescein on Cys-24) (designed binder)
chain: NAADLEAK(PP1)IRHLREKLAARGPRDC(fluorescein maleimide)AQLAEQLARRFERFARAG-NH2
modifications: not fully specified (N-terminus); also: PP1 chelating two Zn2+, group on Lys15 not given here
With B1, the affinity with α-casein [1], expressed as Kd, was 17 nM. For the same molecule, the concentration for a half-maximal effect (EC50 (read off the curve)) (commonly the concentration giving half of the maximal effect) is roughly 20 nM in the experiment with α-casein [2] and roughly 70 nM with α-casein [3].

Regarding NAADLEARIRHLRERLAARGPK(PP1)DCK(X2)QLAEQLARAFERFARAG-NH2 (designed binder, not fully specified (residue 24, N-terminus); also: two Zn2+ chelated by PP1, Named only as a member of the 4-series) [4-C25L22-PP1 (coumarin form, with Zn2+)], the Kd – broadly, the free concentration of one partner at which half of the binding sites on the other are occupied at equilibrium, for simple one-to-one binding – with α-casein [4] was no more than 5 nM.
